B1: acidic domain of Homo sapiens APLF (APLF^AD, residues 450 to 511), wild type [Homo sapiens] / stoichiometric mixture of full-length Drosophila melanogaster H2A-H2B and H3-H4 (octamer-mix) [Drosophila melanogaster] (parent complex)
chain 1: DEDNDNVGQPNEYDLNDSFLDDEEEDYEPTDEDSDWEPGKEDEEKEDVEELLKEAKRFMKRK
chain 2: not shown
chain 3: not shown
chain 4: not shown
chain 5: not shown

Variants of: B1
Experiment: ITC

Kd [nM] | Variant
671 | chain 1 Y13A, chain 1 F19A
317 | chain 1 Y27A, chain 1 W36A
794 | chain 1 Y13A, chain 1 F19A, chain 1 Y27A, chain 1 W36A

— PMC9328677 (2021)
